Here are results for one molecule from article PMC10130016, “Millisecond cryo-trapping by the spitrobot crystal plunger simplifies time-resolved crystallography” (Nature Communications, 2023).

The experiment has as its target T1, Salmonella typhimurium tryptophan synthase TrpB subunit (Salmonella typhimurium, UniProt P0A2K1 1-397, pyridoxal 5'-phosphate (PLP) as internal aldimine; Lys87 named in the active site).
T1 construct: Tryptophan synthase beta chain (TrpB), Salmonella typhimurium; also called TS β-subunit
T1 sequence: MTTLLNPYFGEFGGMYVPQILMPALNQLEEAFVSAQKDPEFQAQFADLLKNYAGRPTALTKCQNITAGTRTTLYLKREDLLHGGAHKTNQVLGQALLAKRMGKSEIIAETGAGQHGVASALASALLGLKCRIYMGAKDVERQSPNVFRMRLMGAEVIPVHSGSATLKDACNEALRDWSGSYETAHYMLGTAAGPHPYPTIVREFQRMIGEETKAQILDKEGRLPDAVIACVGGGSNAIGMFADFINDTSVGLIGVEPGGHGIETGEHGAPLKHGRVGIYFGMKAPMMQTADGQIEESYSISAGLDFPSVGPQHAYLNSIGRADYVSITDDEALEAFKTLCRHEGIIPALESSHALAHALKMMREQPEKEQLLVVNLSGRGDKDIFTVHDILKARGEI
The experiment in a line: crystal structure; TrpAB complex purified together; crystals from 17% (w/v) PEG 300, 0.1 M Tris-HCl pH 7.5, 20 mM cesium chloride, 18 °C, hanging drop; space group C 2, one TrpA and one TrpB in the asymmetric unit; cryo-trapped 0, 20, 25 and 30 s after LAMA mixing with indole, serine and G3P. The following applies: both partners purified.

B1: Salmonella typhimurium tryptophan synthase TrpA subunit (enzyme)
chain: MERYENLFAQLNDRREGAFVPFVTLGDPGIEQSLKIIDTLIDAGADALELGVPFSDPLADGPTIQNANLRAFAAGVTPAQCFEMLALIREKHPTIPIGLLMYANLVFNNGIDAFYARCEQVGVDSVLVADVPVEESAPFRQAALRHNIAPIFICPPNADDDLLRQVASYGRGYTYLLSRSGVTGAENRGALPLHHLIEKLKEYHAAPALQGFGISSPEQVSAAVRAGAAGAISGSAIVKIIEKNLASPKQMLAELRSFVSAMKAASRA
notes: Tryptophan synthase alpha chain (TrpA), Salmonella typhimurium; also called TS alpha subunit
B1: the binding result was “binds”.
